Values quoted from earlier work, collected in paper PMC5040959.

Target: Glu286 (UniProt position 286, FFGHPEVYIIV)
Assay: kinetics
Conditions: fully reduced CytcO reacting with O2, F -> O step

For “Cytochrome c oxidase (cytochrome aa3), subunit I (Rhodobacter sphaeroides)”, the pKa is given as ~9.
